Measurements as given in patent US20160222395.

How the values were obtained:
[1] = test system: ALS2_T1 TALE nuclease left subunit (synthetic construct); assay: cell_activity; conditions: yeast beta-galactosidase recombination assay, 37 C, as pair with right subunit; 0.86 (0.02) at 30 C; also cleaves in N. benthamiana leaves (T7EI)
[2] = test system: ALS2_T1 TALE nuclease right subunit (synthetic construct); assay: cell_activity; conditions: yeast beta-galactosidase recombination assay, 37 C, as pair with left subunit; 0.86 (0.02) at 30 C; also cleaves in N. benthamiana leaves (T7EI)

Sequence	activity (relative to I-SceI (max 1.0)) [1]	activity (relative to I-SceI (max 1.0)) [2]
TAGCTTGTTCCACATTT (double strand) [ALS2_T1 left target half-site]	0.97	
ACAGTACGACCCAGTCT (double strand) [ALS2_T1 right target half-site]		0.97
